What was measured:
Human mPB CD34+ cells = assay: Proliferative activity on human granulocyte progenitors (flow cytometry); assay type: cell-based; conditions: for Number of CD45RA-CD41-: 7 days, flow cytometry
Description: Human mPB CD34^+ cells were purchased from AllCells. Cells were resuspended in HSC expansion medium (StemSpan SFEM, StemCell Technologies) supplemented with 1× antibiotics and the following recombinant human cytokines: thrombopoietin, IL6, Flt3 ligand, and stem cell factor (100 ng/mL, R & D Systems), then plated in 96-well plates (1000 cells per well), with varied concentrations of BLV1H12-bGCSF fusion antibodies. Cells were cultured for 7 days at 37° C. in a 5% CO2 incubator, then analyzed by flow cytometry to measure cell number and expression of CD45ra and CD41. Cells were stained in staining medium (HBSS supplemented with 2% FBS and 2 mM EDTA) at 4° C. for 1 h with PECy7 anti-CD45ra and eFluor 450 anti-CD41 (eBiosciences), then washed with staining medium and analyzed. Multicolor analysis for cell phenotyping was performed on a LSR II flow cytometer (Becton Dickinson). FIGS. 10A-10E and Tables 9-10 show the human granulocyte progenitor cell proliferative activities of the Ab-GCSF fusion antibodies.

[1] = Pharmacokinetics in mice (ELISA of blood samples); assay type: in vivo; conditions: 70 μg injected, BALB/c mice
Description: For PK study in mice, 70 μg of the immunoglobulin constructs described herein were injected into 3 BALB/c mice per group. Blood samples were drawn from time 0 to 14 days with extended intervals and analyzed by ELISA using anti-human IgG Fc antibody with horseradish peroxidase (HRP) labeled (KPL) and anti-6×His antibody (“6×His” disclosed as SEQ ID NO: 511) with HRP labeled (Clontech). Data were normalized by taking maximal concentration at the first time point (30 min).

mice neutrophils = assay: Neutrophil counts in mice, 10th day after injection; assay type: in vivo; conditions: blood stained and counted at the 10th day post-injection
Description: On the 10th day after injection of BLV1H12-bGCSF fusion antibodies into mice for PK study, blood samples were drawn from the mice and stained using the Diff Quick Staining Kit (Thermo Fisher Scientific, IL). Neutrophils and white blood cells were counted under microscope and the percentages of neutrophils were analyzed. FIGS. 12A-12B and Table 12 show proliferative activities of BLV1H12-bGCSF fusion antibodies on mice neutrophils that are blood stained and counted at the 10th day post-injection.

GLP-1 receptor (GLP-1R) = molecular target: T1, GLP-1 receptor (GLP-1R) (Homo sapiens, UniProt P43220); assay: GLP-1R activation, cAMP responsive luciferase reporter in HEK293 cells; assay type: cell-based; conditions: HEK293 cells expressing GLP-1R, 24 h
T1 construct: expressed in transfected cells; host or cells: HEK293 (with cAMP responsive luciferase reporter gene)
Description: HEK293 cells expressing surface GLP-1R and cAMP responsive luciferase reporter gene were seeded in 384 well plates at a density of 5000 cells per well. […] Subsequently, luciferase assay was performed using One-Glo luciferase reagent according manufacture's instruction (Promega).
HEK293 cells expressing surface GLP-1R and cAMP responsive luciferase reporter gene were seeded in 384 well plates at a density of 5000 cells per well. After 24 h incubation at 37° C. with 5% CO2, cells were treated with various concentrations of peptides and BLV1H12-GLP-1 clip fusion proteins and incubated for another 24 h. Subsequently, luciferase assay was performed using One-Glo luciferase reagent according manufacture's instruction (Promega).

CXCR1 = molecular target: T2, CXCR1 (Homo sapiens, UniProt P25024); assay: Flow cytometry binding to CXCR1-U2OS cells; conditions: CXCR1-U2OS cells; cell culture supernatant; flow cytometry
T2 construct: host or cells: U2OS
T2 sequence (P25024 1-350): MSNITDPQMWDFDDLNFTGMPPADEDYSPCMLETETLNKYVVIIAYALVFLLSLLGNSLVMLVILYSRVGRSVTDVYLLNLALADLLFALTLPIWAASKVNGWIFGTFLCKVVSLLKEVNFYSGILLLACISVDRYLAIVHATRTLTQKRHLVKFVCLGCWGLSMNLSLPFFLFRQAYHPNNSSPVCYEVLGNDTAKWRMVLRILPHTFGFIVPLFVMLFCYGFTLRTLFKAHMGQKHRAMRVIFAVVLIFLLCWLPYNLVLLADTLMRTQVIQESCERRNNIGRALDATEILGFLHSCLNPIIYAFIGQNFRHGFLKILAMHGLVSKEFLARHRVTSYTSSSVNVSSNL
Description: (§1) Briefly, a cell line expressing functionally validated CXCR1 derived from U2OS cells was obtained from DiscoveRx and cultured per manufacturer's instructions (Cat #93-0226C3, DiscoveRx Corporation, Freemont, Calif.). The parental cell line U2OS was obtained from ATCC and cultured under the same conditions as the CXCR1 cells. Cell culture supernatants from Example 2 above were then tested for binding to cells by flow cytometry. The adherent U2OS or CXCR1-U2OS cells were dissociated with Accutase (Innovative Cell Technologies, Inc., San Diego, Calif.), neutralized with an equal volume of media containing 10% serum, centrifuged at 1000 g, and resuspended in PBS with 2% BSA. Next, cells were dispensed into microtiter plates to achieve between 30,000 to 300,000 cells per well, centrifuged again, and resuspended in cell culture supernatant containing expressed IgG, or a dilution of IgG-containing cell culture supernatant. A fluorescent-conjugated anti-Human Fc antibody was used to detect binding of the expressed BLV1H12-IL8 fusion proteins to cells.

Parental U2OS = assay: Flow cytometry binding to parental U2OS cells; conditions: cell culture supernatant
Description: as §1

T1 sequence (P43220 24-463, species assumed): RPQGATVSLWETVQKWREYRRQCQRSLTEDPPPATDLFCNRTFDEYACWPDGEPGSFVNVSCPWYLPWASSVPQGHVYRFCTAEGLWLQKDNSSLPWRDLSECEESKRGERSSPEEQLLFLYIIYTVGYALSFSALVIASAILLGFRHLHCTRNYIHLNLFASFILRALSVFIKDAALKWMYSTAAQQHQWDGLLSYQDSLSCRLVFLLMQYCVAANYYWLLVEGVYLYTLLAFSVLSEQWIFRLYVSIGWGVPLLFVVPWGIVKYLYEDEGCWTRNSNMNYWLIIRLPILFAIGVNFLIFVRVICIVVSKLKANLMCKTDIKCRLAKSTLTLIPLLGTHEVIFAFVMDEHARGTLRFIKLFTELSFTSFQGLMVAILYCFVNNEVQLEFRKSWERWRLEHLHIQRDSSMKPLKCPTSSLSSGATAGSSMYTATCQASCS

B1: Ab: bovine BLV1H12 antibody with ultralong CDR3, no insertion; scaffold of the fusions and control (antibody)
heavy: QVQLRESGPSLVKPSQTLSLTCTASGFSLSDKAVGWVRQAPGKALEWLGSIDTGGNTGYNPGLKSRLSITKDNSKSQVSLSVSSVTTEDSATYYCTSVHQETKKYQSCPDGYRERSDCSNRPACGTSDCCRVSVFGNCLTTLPVSYSYTYNYEWHVDVWGQGLLVTVSS
light: QAVLNQPSSVSGSLGQRVSITCSGSSSNVGNGYVSWYQLIPGSAPRTLIYGDTSRASGVPDRFSGSRSGNTATLTISSLQAEDEADYFCASAEDSSSNAVFGSGTTLTVLGQPKSPPSVTLFPPSTEELNGNKATLVCLISDFYPGSVTVVWKADGSTITRNVETTRASKQSNSKYAASSYLSLTSSDWKSKGSYSCEVTHEGSTVTKTVKPSECS
- proliferative activity on human granulocyte progenitor cells (Human mPB CD34+ cells): lack of proliferative activity
- Number of CD45RA-CD41- (Human mPB CD34+ cells; 0.28959 ng/mL): 3666
- Number of CD45RA-CD41- (Human mPB CD34+ cells; 0.86877 ng/mL): 3839
- Number of CD45RA-CD41- (Human mPB CD34+ cells; 2.60631 ng/mL): 3852
- Number of CD45RA-CD41- (Human mPB CD34+ cells; 23.45679 ng/mL): 3519
- Number of CD45RA-CD41- (Human mPB CD34+ cells; 70.37037 ng/mL): 3541
- Number of CD45RA-CD41- (Human mPB CD34+ cells; 211.11111 ng/mL): 3606
- Number of CD45RA-CD41- (Human mPB CD34+ cells; 5700 ng/mL): 4100
- Percentage (blood level normalized to first time point, 30 min) ([1]; day 0.021): 100.00%
- Percentage (blood level normalized to first time point, 30 min) ([1]; day 0.042): 106.09%
- Percentage (blood level normalized to first time point, 30 min) ([1]; day 0.083): 95.88%
- Percentage (blood level normalized to first time point, 30 min) ([1]; day 0.125): 86.54%
- Percentage (blood level normalized to first time point, 30 min) ([1]; day 0.250): 74.26%
- Percentage (blood level normalized to first time point, 30 min) ([1]; day 1.000): 52.43%
- Percentage (blood level normalized to first time point, 30 min) ([1]; day 2.000): 39.46%
- Percentage (blood level normalized to first time point, 30 min) ([1]; day 3.000): 36.97%
- Percentage (blood level normalized to first time point, 30 min) ([1]; day 8.000): 45.44%
- Percentage (blood level normalized to first time point, 30 min) ([1]; day 10.000): 40.98%
- Percentage (blood level normalized to first time point, 30 min) ([1]; day 14.000): 51.96%
- Percentage of Neutrophil (mice neutrophils): 18.81
- RLU (cAMP responsive luciferase reporter) (GLP-1 receptor (GLP-1R); 1.26953 nM): 5200 RLU
- RLU (cAMP responsive luciferase reporter) (GLP-1 receptor (GLP-1R); 2.53906 nM): 5000 RLU
- RLU (cAMP responsive luciferase reporter) (GLP-1 receptor (GLP-1R); 5.07813 nM): 5600 RLU
- RLU (cAMP responsive luciferase reporter) (GLP-1 receptor (GLP-1R); 10.15625 nM): 5500 RLU
- RLU (cAMP responsive luciferase reporter) (GLP-1 receptor (GLP-1R); 20.3125 nM): 5380 RLU
- RLU (cAMP responsive luciferase reporter) (GLP-1 receptor (GLP-1R); 40.625 nM): 4600 RLU
- RLU (cAMP responsive luciferase reporter) (GLP-1 receptor (GLP-1R); 81.25 nM): 6140 RLU
- RLU (cAMP responsive luciferase reporter) (GLP-1 receptor (GLP-1R); 162.5 nM): 5760 RLU
- RLU (cAMP responsive luciferase reporter) (GLP-1 receptor (GLP-1R); 325 nM): 5600 RLU
- RLU (cAMP responsive luciferase reporter) (GLP-1 receptor (GLP-1R); 650 nM): 5800 RLU
- RLU (cAMP responsive luciferase reporter) (GLP-1 receptor (GLP-1R); 1300 nM): 14000 RLU
- Median Arbitrary Fluorescence Units (IgG binding) (CXCR1): 4 AFU
- Median Arbitrary Fluorescence Units (IgG binding) (Parental U2OS): 4 AFU

From patent publication US10774132B2, “Ultralong complementarity determining regions and uses thereof” (THE SCRIPPS RESEARCH INSTITUTE, priority 2012, dated 2020)
